# From patent US20060127400A1, “Activation of regulatory T cells by alpha-melanocyte stimulating hormone” (THE SCHEPENS EYE RESEARCH INSTITUTE, INC., priority 1999, published 2006)
# Columns and labels:
# [1] = tested on: primed T cells; assay: proliferation of TCR-stimulated primed T cells (3H-thymidine incorporation); assay type: cell-based, mouse (BALB/c); conditions: for T cell proliferation, increasing concentrations of TGF-β: 0.005-5.0 ng/ml, regardless of the presence of α-MSH 30 pg/ml; for T cell proliferation, TGF-β added from the start of TCR-stimulation through 6 hours later: no α-MSH
# [2] = tested on: primed T cells; assay: total TGF-β production by TCR-stimulated primed T cells, Mv1Lu (CCL-64) bioassay; assay type: cell-based, mouse (BALB/c); conditions: α-MSH 30 pg/ml, TGF-β 5.0 ng/ml, 48 hours
# Procedure: TGF-β bioassay. To measure total TGF-β, 100 μl of conditioned media was pretreated according to standard procedures (24) with 10 μl 1N HCL to lower the media pH to 2 and incubated for 1 hour at 4° C. The acid was neutralized with 20 μl of a 1:1 mixture of 1N NaOH: 1M HEPES returning the culture supernatant to a pH 7.3. The transiently acidified conditioned media was then used in the Mv1Lu assay; diluted 1:4 in EMEM+0.5% FBS. To the wells of a Falcon 96-well flat-bottom plate, 100 μl of diluted transiently acidified samples were added with 100 μl of 1×10^5 Mv1Lu cells (CCL-64; ATCC, Rockville, Md.). The plate was incubated for 20 hours at 37° C., 5% CO2 followed by the addition of 20 μl of 50 μCi/ml 3H-thymidine and the plate was incubated for an additional 4 hours. Supernatant was discarded and 50 μl of 10× Trypsin-EDTA (Biowhittaker, Walkersville, Md.) solution was added to each well and the plate was incubated for 15 minute at 37° C. The cells were collected onto filter paper using a Tomtec Plate Harvester 96 and counts per minute (CPM) of incorporation 3H-thymidine was measured using a Wallac 1205 Betaplate Liquid Scintillation Counter. Cultures of known amounts of purified activated TGF-β1, 20 ng/ml to 0.2 pg/ml (R&:D Systems), were prepared in the same plate for calculating a standard curve to quantify the concentration of total TGF-β in the samples.
# Primed T Cell In Vitro Assays. From draining lymph nodes of BALB/c mice immunized 7 days previously with MT-Ag, primed T cells were isolated using CD3 enrichment columns (R&D Systems). T-cells (4×10^5 cells) suspended in serum-free media were added to the wells of a 96 well, round bottom plate (Corning). To the wells were added α-MSH (30 pg/ml) and anti-TCR antibody (2C11; 1 μg/ml) diluted in serum-free culture media. Various concentrations of TGF-β1 or TGF-β2 in media were added. In a second set of experiments TGF-β1 or TGF-β2 at a fixed concentration of 5 ng/ml were added to the wells at various times (0, 2, 4 and 6 hours) after addition of anti-TCR antibody. The cultures were incubated for 24 hours and 0.5 μCi of 3H-thymidine (NEM, Boston, Mass.) was added to the wells and the cultures were incubated for an additional 24 hours. The cells were collected and incorporated radiolabeled was measured by scintillation counting. Production of TGF-β by the treated primed T cells was done by centrifuging the culture plates 24 hours after the addition of anti-TCR antibody, removing the supernatant, washing the cultures once and adding fresh media. […]
# FIG. 4 is a bar graph of TGF-β production by primed T cells TCR-stimulated in the presence of α-MSH. […] Significance (p=0.05) was determined by Student's t-test between TGF-β concentrations in cultures of activated α-MSH treated T cells and T cells activated in the absence of α-MSH. […]
# [3] = tested on: primed Th1 cells; assay: in vitro regulatory T cell activity assay (IFN-γ of freshly activated primed Th1 cells in coculture); assay type: cell-based, mouse (BALB/c); conditions: for induction of regulatory T cell activity (suppression of IFN-γ of other Th1 cells), factor individually: α-MSH 30 pg/ml or TGF-β 5.0 ng/ml; for induction of regulatory T cell activity, TGF-β added 4 hours after TCR-stimulation in the presence of α-MSH: α-MSH 30 pg/ml, TGF-β 5.0 ng/ml
# Procedure: (§1) Assay For In Vitro Regulatory T Cell Activity. The α-MSH-treated TCR-stimulated T cells, as described above, were cultured for 48 hours. The plate was spun down at 250×g for 10 minutes and supernatant discarded. Freshly isolated, enriched in vivo primed Th1 cells (4×10^6 cells/ml) mixed with 2C11 (1 μg/ml) were added (200 μl) to the wells of the α-MSH pre-treated, TCR-stimulated T cells and incubated for 48 hours. The culture supernatant was assayed for IFN-γ by sandwich ELISA. For long term cultures, primed T cells were TCR-stimulated in the presence of α-MSH for 48 hours. The plate was centrifuged and supernatant was exchanged for 200 μl of 2C11 (1 μg/ml) in fresh media, no x-MSH. The cultures were incubated for 72 hours and the conditioned media was again exchanged for fresh media and 2C11 antibody. The cultures were incubated for an additional 48 hours, centrifuged, supernatant discarded, and added were fresh in vivo primed Th1 cells and 2C11 antibody. Soluble TGF-β receptor II (sTGF-βRII, R&D Systems) was added to some of the cultures. These cultures were incubated for 48 hours and the culture supernatant was assayed for IFN-γ by sandwich ELISA.
# Primed T cells (4×10^5 cells) were enriched and activated with anti-CD3 in the presence (α-MSH+anti-CD3) or absence (+anti-CD3) of α-MSH (30 pg/ml). After 48 hours of incubation the cells were mixed with freshly enriched primed Th1 cells (4×10^5 cells) and anti-CD3 antibody and cultured for 48 hours. The culture supernatant was assayed for IFN-γ by sandwich ELISA. Results are presented as IFN-γ pg/ml±SEM of eight independent experiments.
# In addition, T cells initial TCR-stimulated in the presence of α-MSH and subsequently restimulated twice (Day 2 and Day 5) with anti-TCR antibody in the absence of α-MSH, still suppressed IFN-γ production by freshly activated primed Th1 cells (FIG. 6). […] Primed T cells (4×10^5 cells) were enriched and activated with anti-CD3 antibody in the presence of 30 pg/ml α-MSH (α-MSH+anti-CD3) or absence of α-MSH (+anti-CD3). After 48 hours of incubation the cells were centrifuged and resuspended in fresh media with anti-CD3 antibodies and incubated for 72 hours (day 5). The cells were again washed and re-stimulated with anti-CD3 and incubated for an additional 48 hours (day 7). After the final incubation the treated T cells (4×10^5 cells) were mixed with freshly enriched primed Th1 cells (4×10^5 cells) and anti-CD3 antibody and cultured for 48 hours. The culture supernatant was assayed for IFN-γ by sandwich ELISA. Results are presented as IFN-γ pg/ml±SEM of eight independent experiments. […] Therefore, α-MSH mediates induction of functionally active, regulatory Th3 cells.
# TGF-β and α-MSH induce regulatory T cell activity. Primed T cells were TCR-stimulated in the presence or absence of 30 pg/ml α-MSH with TGF-β1 or TGF-β2 (5.0 ng/ml) added 4 hours after TCR-stimulation. The treated T cells (Regulatory T cells) were added to cultures of freshly activated primed T cells. Culture supernatants were assayed for IFN-γ 48 hours after addition of treated T cells. Data are presented as percent suppression±SEM of IFN-γ produced by freshly activated T cells with no added regulatory cells, from eight independent experiments.
# [4] = tested on: TGF-β; assay: in vitro regulatory T cell assay with soluble TGF-β receptor type II added; assay type: cell-based, mouse; conditions: increasing amounts added to cocultures, 48 hours
# Procedure: as §1
# α-MSH induced regulatory T cells that through TGF-β suppress activation of other T cells. […] The regulatory T cells were washed and added to cultures of freshly TCR-stimulated primed T cells as described for FIG. 15. […]
Molecule,"T cell proliferation, increasing concentrations of TGF-β [1]","T cell proliferation, low concentrations of TGF-β ([1]; TCR-stimulated primed T cells, FIG. 9)","T cell proliferation, TGF-β added from the start of TCR-stimulation through 6 hours later ([1]; TGF-β 5.0 ng/ml)",α-MSH-induced TGF-β production after addition of TGF-β at various times after TCR-stimulation [2],"induction of regulatory T cell activity (suppression of IFN-γ of other Th1 cells), factor individually [3]","induction of regulatory T cell activity, TGF-β added 4 hours after TCR-stimulation in the presence of α-MSH [3]",effect on suppression of IFN-γ production mediated by α-MSH-treated T cells [4],"T cell proliferation, TGF-β added at or later than 4 hours after TCR-stimulation ([1]; TGF-β 5.0 ng/ml, α-MSH 30 pg/ml present)"
"TGF-β1: purified activated TGF-β1 (R&D Systems), transforming growth factor",suppressed,either no effect or enhanced,suppressed,did not change,could not alone or with α-MSH induce regulatory T cells,antagonized α-MSH-mediated induction of regulatory T cells,–,–
"sTGF-βRII: soluble TGF-β receptor type-two (R&D Systems), used to neutralize TGF-β activity (protein, UniProt P37173 23-166, looked up, extracellular domain) extracellular domain: TIPPHVQKSVNNDMIVTDNNGAVKFPQLCKFCDVRFSTCDNQKSCMSNCSITSICEKPQEVCVAVWRKNDENITLETVCHDPKLPYHDFILEDAASPKCIMKEKKKPGETFFMCSCSSDECNDNIIFSEEYNTSNPDLLLVIFQ",–,–,–,–,–,–,neutralized,–
"TGF-β2: recombinant / purified human transforming growth factor-β2 (R&D Systems) (protein, UniProt P61812 303-414, looked up, Transforming growth factor beta-2) Transforming growth factor …: ALDAAYCFRNVQDNCCLRPLYIDFKRDLGWKWIHEPKGYNANFCAGACPYLWSSDTQHSRVLSLYNTINPEASASPCCVSQDLEPLTILYYIGKTPKIEQLSNMIVKSCKCS",suppressed,–,suppressed,did enhance,induced regulatory T cell activity,enhanced the regulatory activity,–,recovered
